Test results reported in article PMC10377175.

Legend:
[1] = target: T1, ENOX2 (tNOX) (Homo sapiens) (UniProt Q16206); experiment: EMSA; details: apparent Kd; 1 nM aptamer, 0-100 nM ENOX2; 0.5 mM MgCl2; EMSA: 0.7% agarose, 0.5x TBE (65 mM Tris, 22.5 mM boric acid, 1.25 mM EDTA, 0.5 mM MgCl2, 0.005% Tween-20, pH 8.3); E-DNA: PBS pH 7.4 (137 mM NaCl, 10 mM …)
T1 sequence: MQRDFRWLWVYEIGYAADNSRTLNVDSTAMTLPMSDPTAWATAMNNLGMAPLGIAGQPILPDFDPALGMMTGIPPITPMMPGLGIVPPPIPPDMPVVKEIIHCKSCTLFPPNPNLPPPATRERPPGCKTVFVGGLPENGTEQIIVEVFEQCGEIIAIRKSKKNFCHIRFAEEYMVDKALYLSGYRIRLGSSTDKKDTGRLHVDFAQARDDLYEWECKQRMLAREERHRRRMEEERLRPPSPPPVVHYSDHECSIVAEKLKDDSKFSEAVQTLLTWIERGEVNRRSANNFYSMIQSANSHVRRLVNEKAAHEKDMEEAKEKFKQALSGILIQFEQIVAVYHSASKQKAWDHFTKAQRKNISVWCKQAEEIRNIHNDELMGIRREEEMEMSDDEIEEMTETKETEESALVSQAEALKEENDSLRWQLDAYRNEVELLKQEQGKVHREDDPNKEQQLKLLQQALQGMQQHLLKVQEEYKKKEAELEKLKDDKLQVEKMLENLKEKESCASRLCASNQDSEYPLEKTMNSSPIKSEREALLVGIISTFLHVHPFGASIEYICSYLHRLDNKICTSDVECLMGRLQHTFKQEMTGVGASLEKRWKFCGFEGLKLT

[2] = target: T1, ENOX2 (tNOX) (Homo sapiens); experiment: electrochemical (E-DNA, square wave voltammetry); details: apparent Kd; 0.1-200 nM ENOX2; PBS with 1 mM MgCl2; internal methylene blue on thymine T21 (printed after ...CATCTTT); 5' disulfide linker reduced to thiol; EMSA: 0.7% agarose, 0.5x TBE (65 mM Tris, 22.5 mM boric acid, 1.25 mM EDTA, 0.5 mM MgCl2, 0.005% Tween-20, pH 8.3); E-DNA: PBS pH 7.4 (137 mM NaCl, 10 mM …)

## TTTTTTAGATCCCTGTTCATCTGTCTCGAGTGTTCTTTAATGATCTTTTT [ENOX2-binding aptamer, 5' fluorescein]
[1]
  Kd: 0.4 nM

## TAAAGATCCCTGTTCATCTTTTCTCGAGTGTTCTTTAGAACAATGAATCTTT [ENOX2 E-DNA biosensor aptamer]
[2]
  Kd: 6 nM
